Data on 9 molecules can be found in patent US20190276531A1 (SYMPHOGEN A S, published 2019).

Experiment [1] addresses T1, human TIM-3 Fc fusion antigen (Sino Biologicals) (human, UniProt Q8TDQ0 22-202).
T1 construct: Bought; also called human TIM-3 ECD; not shown: Fc part of the bought fusion protein, not described
Briefly: ELISA; TIM-3 Fc fusion coated at 1 µg/ml, antibody titrated 2-fold from 1000 nM, HRP secondary. On the technique in general: ELISA stands for enzyme-linked immunosorbent assay.

Experiment [2] concerns the target T2, monomeric human TIM-3 ECD antigen (Acro Biosystems) (human, UniProt Q8TDQ0 22-202).
T2 construct: Bought; also called soluble monovalent TIM-3 antigen (Acro Biosystems, China)
Briefly: SPR (IBIS MX96); antibody captured on anti-human IgG Fc sensor, monomeric human TIM-3 ECD injected 2-100 nM; 1:1 Langmuir fit.

Experiment [3] deals with T3, R-PE-labeled human TIM-3-Fc chimera protein (R&D Systems) (human, UniProt Q8TDQ0 22-200, conjugated to R-phycoerythrin (R-PE), sites not stated).
T3 construct: Bought; also called TIM-3-PE; soluble TIM-3-Fc; Fc part of the bought chimera not given, not described
Briefly: flow cytometry competition: R-PE-labelled TIM-3-Fc pre-mixed with titrated antibody, then binding to phosphatidylserine-positive apoptotic Jurkat cells (MFI); blocked ligand: phosphatidylserine; unit taken from the axis log(Concentration) µg/ml. In general terms: A flow cytometer gives signals particle by particle.

Experiment [4] addresses T4, cynomolgus TIM-3 ECD fused C-terminally to human IgG1 Fc (made in-house, ExpiCHO) (cynomolgus monkey (Macaca …)).
T4 construct: whole entry named
T4 chain: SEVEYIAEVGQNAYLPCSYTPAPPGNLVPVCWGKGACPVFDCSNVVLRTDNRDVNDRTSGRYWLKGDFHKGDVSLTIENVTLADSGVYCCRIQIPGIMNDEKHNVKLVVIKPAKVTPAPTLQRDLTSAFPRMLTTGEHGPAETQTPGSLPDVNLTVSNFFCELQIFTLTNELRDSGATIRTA
Briefly: SPR (IBIS MX96); TIM-3 ECD-Fc captured on anti-human IgG Fc sensor, Fab injected 1-100 nM; 1:1 Langmuir fit.

B1: antibody 15086.17145 (antibody, human IgG2, kappa)
heavy: QVQLQESGPGLVKPSQTLSLTCTVSGGSISSGGYYWSWTRQHPGMGLEWIGYISYSGSIYYTPSLKSRLTISVDTSKNQFSLKLSSVTAADTAVYYCASLDSWGSNRDYWGQGTLVTVSSASTKGPSVFPLAPCSRSTSESTAALGCLVKDYFPEPVTVSWNSGALTSGVHTFPAVLQSSGLYSLSSVVTVPSSNFGTQTYTCNVDHKPSNTKVDKTVERKCCVECPPCPAPPVAGPSVFLFPPKPKDTLMISRTPEVTCVVVDVSHEDPEVQFNWYVDGVEVHNAKTKPREEQFNSTFRVVSVLTVVHQDWLNGKEYKCKVSNKGLPAPIEKTISKTKGQPREPQVYTLPPSREEMTKNQVSLTCLVKGFYPSDIAVEWESNGQPENNYKTTPPMLDSDGSFFLYSKLTVDKSRWQQGNVFSCSVMHEALHNHYTQKSLSLSPGK
light: not shown
As to B1, the concentration for a half-maximal effect (EC50) in experiment [1] came out at 0.125 nM. The molecule further displayed a Kd in experiment [2] of 19 nM. In experiment [3], this molecule had an IC50 of 0.651 µg/mL.

B2: Fab 20131 (Fab, V domains shown)
VH: QVQLQQSGGGLVQPGGSLRLSCAASGFTLSSYAMSWVRQAPGKGLEWVSGISGSGGSTYNADSVKGRFTISRDNSKNTLFLQMNSLRAEDTAVYYCAKIFGSYYFDYWGQGTLVTVSS
VL: not shown
notes: not shown: cleavage site not s
Consider B2, for which the Kd in experiment [4] was 22 nM.

B3: antibody 19324 (antibody, V domains shown)
VH: QMQLQQSGGGLVQPGGSLRLSCAASGFTVSSYAMSWVRQALGKGLEWVSGISGSGGSTYYADSVKGRFTISRDNSKNTLYLQMNSLRAEDTAVYYCAKIVGATHFDYWGQGTLVTVSS
VL: not shown
In the case of B3, in experiment [1], the half-maximal effective concentration (EC50) turned out to be 0.73 nM.

B4: antibody 20185 (antibody, V domains shown)
VH: QVQLVESGGGLVRPGGSLRLSCAVSGFTFSSYAMSWVRQAPGKGLEWVSGISGSGGSTYNADSVKGRFTISRDNSKNTLYLQMNSLRAEDTAVYYCAKIFGSYYFDYWGQGTLVTVSS
VL: not shown
The molecule B4 had an EC50 in experiment [1] of 0.17 nM.

B5: antibody 20300 (antibody, V domains shown)
VH: QVQLQQSGGGLVHPGGSLRLSCAASGFTVDTYAMTWVRQAPGKGLEWVSGISGSGGSTYYADSVKGRFTISRDNSKNTLYLQMNSLRDEDTAVYYCAKIVGVTHFDYWGQGTLVTVSS
VL: not shown
B5: in experiment [1], a half-maximal effect (EC50) was put at 1.13 nM.

B6: antibody 19416 (antibody, V domains shown)
VH: QVQLVESGPGLVKPSQTLSLTCTVSGGSINSGGYYWSWIRQHPGKGLEWIGYIYYSGSIYYNPSLRSRLTISVDTSKNQFSLKLSSVTAADTAVYYCATPYYYGSGSYGDYWGQGTLVTVSS
VL: DIQMTQSPATLSLSPGERATLSCRASQSVNNYLAWYQQKPGQAPRLLIYDASNRATGIPARFSGSGSGTDFTLTISSLEPEDFAVYYCQQRSNWPITFGQGTRLEIK
B6 returned an EC50 in experiment [1] of 0.2 nM.

B7: antibody 20362 (antibody, V domains shown)
VH: QVTLKESGPGLVKPSQTLSLTCTVSGGSISSGGHYWSWIRQHPGKGLEWIGYISYSGSTYYNPSLKSRLTISVDTSKNQFSLKLSSVTAADTAVYYCATAYYDILTGYPFDYWGQGTLVTVSS
VL: EIVMTQSPATLSLSPGERATLSCRASQSVSSYLAWYQQKPGQAPRLLIYDASDRATGIPARFSGSGSGTDFTLTISSLEPEDFAVYYCQQRSNWPITFGQGTRLEIK
In the case of B7, the EC50 in experiment [1] was determined as 0.26 nM.

B8: antibody 19568 (antibody, V domains shown)
VH: QMQLQESGPGLVKPSQTLSLTCTVSGGSISSVGYYWNWIRQHPGKGLEFIGYIYYSGSIYYNPSLKSRVTISVDTSKNQFSLKLSSVTAADTALYYCASVGIVGASYFEYWGQGTLVTVSS
VL: EIVMTQSPATLSLSPGERATLSCRASQSVSSYLAWYQQKPGQAPRLLIYDASNRATGIPARFSGSGSGTDFTLTISSLEPEDFAVYYCQQRSNWPITFGQGTRLEIK
Turning to B8, the EC50 in experiment [1] is 0.38 nM.

B9: antibody 20621 (antibody, V domains shown)
VH: QVQLQQSGPGLVKPSQTLSLTCTVSGGSISSGGYYWSWIRQHPGKGLEWIGYISYSGSIYYNPSLKSRVTISVDTSKNQFSLKLSSVTATDTAVYYCATAYYDLLTGYPFDYWGQGTLVTVSS
VL: EIVMTQSPATLSLSPGERATLSCRASQSVSSYLAWYQQKPGQAPRLLIYDASNRATGIPARFSGSGSGTDFTLTISSLEPEDFAVYYCQQRSNWPITFGQGTRLEIK
In turn, B9 showed an EC50 in experiment [1] of 0.22 nM.

Broadly, the EC50 is the concentration needed to bring the measured effect to its halfway point. Usually Kd stands for the constant that tells how readily two partners part at equilibrium. One may read the IC50 as the midpoint of a concentration-inhibition curve.
